Experimental data as given in paper PMC7069705 (Science Advances, 2019).

B1: homodimeric SNAP-KIF3A labeled with Alexa647 or TMR (natural protein, mouse, UniProt P28741 1-701, looked up)
chain: MPINKSEKPESCDNVKVVVRCRPLNEREKSMCYRQAVSVDEMRGTITVHKTDSSNEPPKTFTFDTVFGPESKQLDVYNLTARPIIDSVLEGYNGTIFAYGQTGTGKTFTMEGVRAVPGLRGVIPNSFAHIFGHIAKAEGDTRFLVRVSYLEIYNEEVRDLLGKDQTQRLEVKERPDVGVYIKDLSAYVVNNADDMDRIMTLGHKNRSVGATNMNEHSSRSHAIFTITIECSEKGVDGNMHVRMGKLHLVDLAGSERQAKTGATGQRLKEATKINLSLSTLGNVISALVDGKSTHVPYRNSKLTRLLQDSLGGNSKTMMCANIGPADYNYDETISTLRYANRAKNIKNKARINEDPKDALLRQFQKEIEELKKKLEEGEEVSGSDISGSEEDDEEGELGEDGEKKKKRRDQAGKKKVSPDKMVEMQAKIDEERKALETKLDMEEEERNKARAELERREKDLLKAQQEHQSLLEKLSALEKKVIVGGVDLLAKAEEQEKLLEESNMELEERRRRAEQLRKELEEKEQERLDIEEKYTSLQEEAQGKTKKLKKVWTMLMAAKSEMADLQQEHQREIEGLLENIRQLSRELRLQMLIIDNFIPQDYQEMIENYVHWNEDIGEWQLKCVAYTGNNMRKQTPVPDKKERDPFEVDLSHVYLAYTEESLRQSLMKLERPRTSKGKARPKMGRRKRSAKPETVIDSLLQ
modifications: Alexa647 or TMR dye on the SNAP tag
B2: KIF3A (homodimer, separately purified) (natural protein, mouse, UniProt P28741 1-701, looked up)
chain: B1 chain
B3: KAP3 (separately purified) (natural protein, mouse, UniProt P70188-1 1-793, looked up)
chain: MQGEDARYLKRKVKGGNIDVHPSEKALIVQYEVEATILGEMGDPMLGERKECQKIIRLKSLNANTDITSLARKVVEECKLIHPSKLSEVEQLLYYLQNRRDSLPGKEKKEKSSKPKDPPPFEGMEIDEVANINDMDEYIELLYEDIPDKVRGSALILQLARNPDNLEELLLNETALGALARVLREDWKQSVELATNIIYIFFCFSSFSHFHGLITHYKIGALCMNIIDHELKRHELWQEELSKKKKAVDEDLENQTLRKDYDKTFKKYQGLVVKQEQLLRVALYLLLNLAEDTRTELKMRNKNIVHMLVKALDRDNFELLILVVSFLKKLSIFMENKNDMVEMDIVEKLVKMIPCEHEDLLNITLRLLLNLSFDTGLRNKMVQVGLLPKLTALLGNENYKQIAMCVLYHISMDDRFKSMFAYTDCIPQLMKMLFECSDERIDLELISFCINLAANKRNVQLICEGNGLKMLMKRALKLKDPLLMKMIRNISQHDGPTKNLFIDYVGDLAAQISSDEEEEFVIECLGTLANLTIPDLDWELVLKEYKLVPFLKDKLKPGAAEDDLVLEVVIMIGTVSMDDSCAALLAKSGIIPALIELLNAQQEDDEFVCQIIYVFYQMVFHQATRDVIIKETQAPAYLIDLMHDKNNEIRKVCDNTLDIIAEYDEEWAKKIQSEKFRWHNSQWLEMVESRQLDESEQYLYGDDRIEPYIHEGDILERPDLFYNSDGLITSEGAISPDFFNDFHLQNGDVVGQHAFPGSLGMDGFGQPLGILGRPATAYGFRPDEPYYYSFGSR

How the values were obtained:
[1] = biological target: the molecule itself; test: single-molecule photobleaching step analysis
[2] = biological target: B3; test: SEC-MALS
[3] = biological target: the molecule itself; test: SEC-MALS
[4] = biological target: full-length APC–green fluorescent protein (GFP) (mouse, UniProt Q61315 1-2845); test: MST
full-length APC–green fluorescent protein (GFP), sequence (Q61315 whole entry): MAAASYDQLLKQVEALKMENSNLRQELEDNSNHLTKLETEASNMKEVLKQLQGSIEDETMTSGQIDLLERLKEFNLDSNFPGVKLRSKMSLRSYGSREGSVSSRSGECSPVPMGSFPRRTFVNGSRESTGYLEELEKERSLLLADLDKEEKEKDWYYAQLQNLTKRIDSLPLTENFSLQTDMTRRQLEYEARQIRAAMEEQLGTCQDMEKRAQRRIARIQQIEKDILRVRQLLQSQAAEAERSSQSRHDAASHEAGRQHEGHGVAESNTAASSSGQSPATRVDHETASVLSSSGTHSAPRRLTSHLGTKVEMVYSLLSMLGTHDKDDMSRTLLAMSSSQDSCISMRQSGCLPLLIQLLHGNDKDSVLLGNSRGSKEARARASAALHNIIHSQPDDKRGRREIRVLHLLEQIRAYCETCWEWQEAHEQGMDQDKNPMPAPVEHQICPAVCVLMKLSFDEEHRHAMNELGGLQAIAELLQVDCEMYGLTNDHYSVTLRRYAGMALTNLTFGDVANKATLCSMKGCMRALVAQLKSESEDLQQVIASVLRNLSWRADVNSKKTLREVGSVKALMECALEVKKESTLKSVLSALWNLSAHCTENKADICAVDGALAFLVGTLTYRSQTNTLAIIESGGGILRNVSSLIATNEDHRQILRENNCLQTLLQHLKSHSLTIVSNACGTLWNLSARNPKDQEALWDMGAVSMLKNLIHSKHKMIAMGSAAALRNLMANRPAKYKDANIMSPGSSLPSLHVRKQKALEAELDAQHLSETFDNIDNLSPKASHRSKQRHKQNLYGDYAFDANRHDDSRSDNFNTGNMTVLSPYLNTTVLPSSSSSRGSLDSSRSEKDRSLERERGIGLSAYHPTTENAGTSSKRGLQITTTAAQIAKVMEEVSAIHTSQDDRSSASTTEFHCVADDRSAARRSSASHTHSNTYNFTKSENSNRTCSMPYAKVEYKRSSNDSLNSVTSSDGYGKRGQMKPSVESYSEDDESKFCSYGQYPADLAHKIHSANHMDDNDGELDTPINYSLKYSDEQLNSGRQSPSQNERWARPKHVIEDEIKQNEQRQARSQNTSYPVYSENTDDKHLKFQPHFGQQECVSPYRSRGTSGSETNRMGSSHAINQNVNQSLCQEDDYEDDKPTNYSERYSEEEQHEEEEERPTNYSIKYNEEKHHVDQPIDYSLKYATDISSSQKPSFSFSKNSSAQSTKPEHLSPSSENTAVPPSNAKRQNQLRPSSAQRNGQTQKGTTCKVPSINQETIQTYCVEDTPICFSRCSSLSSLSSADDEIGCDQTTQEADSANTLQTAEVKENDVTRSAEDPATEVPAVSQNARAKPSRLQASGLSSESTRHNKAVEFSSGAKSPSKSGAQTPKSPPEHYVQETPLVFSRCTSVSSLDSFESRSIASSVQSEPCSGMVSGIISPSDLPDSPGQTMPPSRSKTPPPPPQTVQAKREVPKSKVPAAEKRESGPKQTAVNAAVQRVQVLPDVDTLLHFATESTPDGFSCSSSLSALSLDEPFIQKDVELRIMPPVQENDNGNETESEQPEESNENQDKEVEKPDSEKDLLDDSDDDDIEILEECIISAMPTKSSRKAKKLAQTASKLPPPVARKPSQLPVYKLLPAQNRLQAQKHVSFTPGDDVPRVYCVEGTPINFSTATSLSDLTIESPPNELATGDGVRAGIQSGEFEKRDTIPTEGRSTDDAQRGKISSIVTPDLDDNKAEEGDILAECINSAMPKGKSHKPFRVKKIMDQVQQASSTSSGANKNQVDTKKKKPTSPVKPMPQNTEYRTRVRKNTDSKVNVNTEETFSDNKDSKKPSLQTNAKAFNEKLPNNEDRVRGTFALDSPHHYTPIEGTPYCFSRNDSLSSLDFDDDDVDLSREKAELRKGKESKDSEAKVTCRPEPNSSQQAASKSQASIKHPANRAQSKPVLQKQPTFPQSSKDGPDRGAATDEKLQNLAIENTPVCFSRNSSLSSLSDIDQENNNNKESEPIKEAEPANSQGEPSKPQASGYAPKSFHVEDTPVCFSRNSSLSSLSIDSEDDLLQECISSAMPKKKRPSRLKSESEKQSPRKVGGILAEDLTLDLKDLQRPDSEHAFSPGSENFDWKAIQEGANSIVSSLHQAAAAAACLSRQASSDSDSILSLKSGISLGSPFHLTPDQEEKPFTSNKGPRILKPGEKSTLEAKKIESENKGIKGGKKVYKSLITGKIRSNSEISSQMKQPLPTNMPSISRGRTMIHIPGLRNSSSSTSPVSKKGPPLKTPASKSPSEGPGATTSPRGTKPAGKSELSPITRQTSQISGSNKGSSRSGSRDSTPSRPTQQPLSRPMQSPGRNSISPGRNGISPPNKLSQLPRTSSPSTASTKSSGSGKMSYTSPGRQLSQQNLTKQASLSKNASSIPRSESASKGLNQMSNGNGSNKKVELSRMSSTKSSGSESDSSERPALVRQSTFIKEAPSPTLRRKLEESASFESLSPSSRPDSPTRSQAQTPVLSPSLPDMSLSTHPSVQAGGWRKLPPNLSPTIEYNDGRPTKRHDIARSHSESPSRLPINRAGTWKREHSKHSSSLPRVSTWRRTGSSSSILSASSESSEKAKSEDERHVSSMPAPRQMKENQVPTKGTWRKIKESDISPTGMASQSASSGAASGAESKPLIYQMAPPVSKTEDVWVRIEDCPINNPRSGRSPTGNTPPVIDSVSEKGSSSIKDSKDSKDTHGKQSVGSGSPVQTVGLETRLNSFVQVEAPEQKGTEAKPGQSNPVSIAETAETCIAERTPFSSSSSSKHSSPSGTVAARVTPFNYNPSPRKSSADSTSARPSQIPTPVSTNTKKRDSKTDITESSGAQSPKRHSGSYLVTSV

Binder: B1
stoichiometry N [1]: 2

Binder: B2
binding result [2]: binds
stoichiometry N [3]: 2

Binder: B3
binding result [4]: binds
